Reference: patent US20210260159A1

Molecular target: human CD40 on cells (HEK293 transfected with human CD40; Ramos-Blue B-lymphocytes; human B cells; human monocyte-derived dendritic cells) (human) (UniProt P25942)
Test: cell-based or functional assay

UniProt P25942, sequence (P25942 21-277 limits assumed): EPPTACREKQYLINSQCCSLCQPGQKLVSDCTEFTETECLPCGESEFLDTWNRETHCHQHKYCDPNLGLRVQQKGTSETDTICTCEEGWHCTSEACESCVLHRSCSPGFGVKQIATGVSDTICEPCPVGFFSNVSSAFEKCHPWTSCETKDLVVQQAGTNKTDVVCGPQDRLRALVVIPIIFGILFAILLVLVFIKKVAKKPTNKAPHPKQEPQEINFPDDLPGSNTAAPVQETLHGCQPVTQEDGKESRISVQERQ

human IgG4P isotype control NIP-228 (antibody)
EC50 (nM), NFkB-luciferase reporter, HuCD40 293 HEK NFkB c3 cells: 2.27 nM | EC50 (nM), NFkB/AP-1 reporter, Ramos-Blue B-cells: 208 nM
